Results from patent publication US20150232568A1 (published 2015).

T1: human Jag2-DSL-EGF1-4 (R2-E388) (UniProt Q9Y219 24-388)
T1 chain: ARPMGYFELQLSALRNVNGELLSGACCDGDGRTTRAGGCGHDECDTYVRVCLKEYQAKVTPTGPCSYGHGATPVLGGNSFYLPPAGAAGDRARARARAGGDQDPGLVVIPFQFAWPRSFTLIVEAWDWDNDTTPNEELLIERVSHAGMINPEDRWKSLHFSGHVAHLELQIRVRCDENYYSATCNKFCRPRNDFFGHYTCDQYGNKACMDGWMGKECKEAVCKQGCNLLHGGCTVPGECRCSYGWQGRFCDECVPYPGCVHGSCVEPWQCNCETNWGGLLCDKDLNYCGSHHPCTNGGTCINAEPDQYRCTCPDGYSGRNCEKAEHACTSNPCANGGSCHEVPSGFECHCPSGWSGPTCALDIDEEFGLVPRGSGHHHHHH

T2: murine Jag2-DSL-EGF1-4 (M27-E388) (UniProt Q9QYE5 27-388)
T2 chain: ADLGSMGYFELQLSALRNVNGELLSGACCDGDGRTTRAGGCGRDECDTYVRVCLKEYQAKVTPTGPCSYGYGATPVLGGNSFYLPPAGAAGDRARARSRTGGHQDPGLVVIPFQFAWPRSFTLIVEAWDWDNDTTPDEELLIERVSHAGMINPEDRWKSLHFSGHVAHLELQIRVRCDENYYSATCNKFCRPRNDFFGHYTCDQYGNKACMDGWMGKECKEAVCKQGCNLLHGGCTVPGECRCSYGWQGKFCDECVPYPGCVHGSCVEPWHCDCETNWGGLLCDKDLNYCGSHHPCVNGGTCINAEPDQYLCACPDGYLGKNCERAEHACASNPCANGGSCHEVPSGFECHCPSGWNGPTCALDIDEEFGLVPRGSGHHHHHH


How the values were obtained:
Test in all cases: Biacore (SPR)
human Jag1-DSL-EGF1-4 = human Jag1-DSL-EGF1-4 (UniProt P78504 34-377)
[1] = biological target: T1, human Jag2-DSL-EGF1-4 (R2-E388)
[2] = biological target: T2, murine Jag2-DSL-EGF1-4 (M27-E388)

Binder	Kd (human Jag1-DSL-EGF1-4) [nM]	Kd [1] [nM]	Kd [2] [nM]
D-1 (antibody, V domains shown) VH: EVQLVESGGGLVQPGGSLRLSCAASGFTFTSNYMSWVRQAPGKGLEWVSTIWYQSGTTDYADSVKGRFTISADTSKNTAYLQMNSLRAEDTAVYYCARDSPWPSKGFGMDVWGQGTLVTVSS VL: DIQMTQSPSSLSASVGDRVTITCRASQSISSYLAWYQQKPGKAPKLLIYGASSRASGVPSRFSGSGSGTDFTLTISSLQPEDFATYYCQQYLSSPITFGQGTKVEIK	0.52	4.6	14
D-2 (antibody, V domains shown) VH: EVQLVESGGGLVQPGGSLRLSCAASGFSVKPMYMTWVRQAPGKGLEWVSTIWYQSGTTDYADSVKGRFTISADTSKNTAYLQMNSLRAEDTAVYYCARSSPWSGEGFGMDVWGQGTLVTVSS VL: DIQMTQSPSSLSASVGDRVTITCRASQSISSYLAWYQQKPGKAPKLLIYGASSRASGVPSRFSGSGSGTDFTLTISSLQPEDFATYYCQQYSSSPLTFGQGTKVEIK	1.1	–	–
C-1 (antibody, V domains shown) VH: EVQLVESGGGLVQPGGSLRLSCAASGFTFTNSDIHWVRQAPGKGLEWVGGITPADGYTDYADSVKGRFTISADTSKNTAYLQMNSLRAEDTAVYYCARSYWSSSPGSAFDYWGQGTLVTVSS VL: DIQMTQSPSSLSASVGDRVTITCRASQDVSTAVAWYQQKPGKAPKLLIYSASFLYSGVPSRFSGSGSGTDFTLTISSLQPEDFATYYCQQSYISPSTFGQGTKVEIK	0.31	0.12	0.73
B-1 (antibody, V domains shown) VH: EVQLVESGGGLVQPGGSLRLSCAASGFTFTSYDIHWVRQAPGKGLEWVGGISPADGDTDYANSVKGRFTISADTSKNTAYLQMNSLRAEDTAVYYCARNDYDVRTVGSGMDYWGQGTLVTVSS VL: DIQMTQSPSSLSASVGDRVTITCRASQDVSTAVAWYQQKPGKAPKLLIYSASFLYSGVPSRFSGSGSGTDFTLTISSLQPEDFATYYCQQSYTSAPTFGQGTKVEIK	–	–	1.1
A (antibody, V domains shown) VH: EVQLVESGGGLVQPGGSLRLSCAASGFTFSNYGIHWVRQAPGKGLEWVGWITPDGGYTDYADSVKGRFTISADTSKNTAYLQMNSLRAEDTAVYYCARAGSWFAYWGQGTLVTVSS VL: DIQMTQSPSSLSASVGDRVTITCRASQDVSTAVAWYQQKPGKAPKLLIYSASFLYSGVPSRFSGSGSGTDFTLTISSLQPEDFATYYCQQSYTTPPTFGQGTKVEIK	94	–	–
B (antibody, V domains shown) VH: EVQLVESGGGLVQPGGSLRLSCAASGFTFTSYDIHWVRQAPGKGLEWVGGISPADGDTDYANSVKGRFTISADTSKNTAYLQMNSLRAEDTAVYYCARNDYDVRSVGSGMDYWGQGTLVTVSS VL: DIQMTQSPSSLSASVGDRVTITCRASQDVSTAVAWYQQKPGKAPKLLIYSASFLYSGVPSRFSGSGSGTDFTLTISSLQPEDFATYYCQQSYTTPPTFGQGTKVEIK	–	1	1
C (antibody, V domains shown) VH: EVQLVESGGGLVQPGGSLRLSCAASGFTFTNSDIHWVRQAPGKGLEWVGGITPADGYTDYADSVKGRFTISADTSKNTAYLQMNSLRAEDTAVYYCARSYWNNSPGSGFDYWGQGTLVTVSS VL: DIQMTQSPSSLSASVGDRVTITCRASQDVSTAVAWYQQKPGKAPKLLIYSASFLYSGVPSRFSGSGSGTDFTLTISSLQPEDFATYYCQQSYTTPPTFGQGTKVEIK	2.3	–	–

Continued, values first:

Kd (human Jag1-DSL-EGF1-4) [nM]	Kd [1] [nM]	Kd [2] [nM]	Binder
13	–	–	D (antibody, V domains shown) VH: EVQLVESGGGLVQPGGSLRLSCAASGFTFTSNYMSWVRQAPGKGLEWVSTIWYQSGTTDYADSVKGRFTISADTSKNTAYLQMNSLRAEDTAVYYCARSSPWSGEGFGMDVWGQGTLVTVSS VL: DIQMTQSPSSLSASVGDRVTITCRASQSISSYLAWYQQKPGKAPKLLIYGASSRASGVPSRFSGSGSGTDFTLTISSLQPEDFATYYCQQYYSSPLTFGQGTKVEIK
–	–	0.0025	B-2 (antibody, V domains shown) VH: EVQLVESGGGLVQPGGSLRLSCAASGFTFTSYDIHWVRQAPGKGLEWVGGISPADGDTDYANSVKGRFTISADTSKNTAYLQMNSLRAEDTAVYYCARNDYDVRSVGSGMDYWGQGTLVTVSS VL: DIQMTQSPSSLSASVGDRVTITCRASQDVSTAVAWYQQKPGKAPKLLIYSASFLYSGVPSRFSGSGSGTDFTLTISSLQPEDFATYYCQQSWTAPPTFGQGTKVEIK
0.3	–	–	A-2 (antibody, V domains shown) VH: EVQLVESGGGLVQPGGSLRLSCAASGFTFSNYGIHWVRQAPGKGLEWVGWITGNGGYSDYADSVKGRFTISADTSKNTAYLQMNSLRAEDTAVYYCARAGSWFAYWGQGTLVTVSS VL: DIQMTQSPSSLSASVGDRVTITCRASQDVSTAVAWYQQKPGKAPKLLIYSASFLYSGVPSRFSGSGSGTDFTLTISSLQPEDFATYYCQQSYTTPPTFGQGTKVEIK
–	–	0.3	B-3 (antibody, V domains shown) VH: EVQLVESGGGLVQPGGSLRLSCAASGFTFTSYDIHWVRQAPGKGLEWVGGISPADGDTDYANSVKGRFTISADTSKNTAYLQMNSLRAEDTAVYYCARNDYDVRFVGSGMDYWGQGTLVTVSS VL: DIQMTQSPSSLSASVGDRVTITCRASQDVSTAVAWYQQKPGKAPKLLIYSASFLYSGVPSRFSGSGSGTDFTLTISSLQPEDFATYYCQQSFTAPPTFGQGTKVEIK
